The target of series [1] is CsDQD/SDHb (Camellia sinensis, UniProt A0A3G3BK08). The series is described as follows: HPLC product quantification. It is filed as biochemical. The settings on record: SA oxidation, 1 mM SA, 1 mM NADP+; BTP-HCl pH 7.5, 30°C, 30 min; very low activity, Km not determinable.
The target in the next series is T1, CsSDHa (Camellia sinensis, UniProt A0A3G3BK14).
T1 construct: SDH unit only of CsDQD/SDHa (Ile-328 to Gly-588 in AtSDH numbering), MBP fusion from pMAL-c2x, E. coli
The experiment in a line: HPLC product quantification. It is filed as biochemical. The settings on record: 1 mM each, BTP-HCl pH 7.5, 30°C.

The target in series [2] is CsDQD/SDHb (Camellia sinensis, UniProt A0A3G3BK08, G296T/D398N/I399R/D400T, form not given). The experiment in a line: HPLC product quantification. It is filed as biochemical. Particulars: MTCsDQD/SDHb; SA oxidation with NADP+; residue numbers after AtDQD/SDH.
Substrate in series [3]: O=C(O)C1=C[C@@H](O)[C@@H](O)[C@H](O)C1
The experiment in a line: HPLC product assay, Michaelis-Menten. It is filed as biochemical, Camellia sinensis. The settings on record: SA oxidation to 3-DHS, co-substrate NADP+ 1.5 mM, BTP-HCl pH 8.5, 30°C, 3 min. An excerpt: (§1) HPLC product assay, Michaelis-Menten on CsDQD/SDHc

Substrate in series [4]: NC(=O)C1=CN([C@@H]2O[C@H](COP(=O)(O)OP(=O)(O)OC[C@H]3O[C@@H](n4cnc5c(N)ncnc54)[C@H](OP(=O)(O)O)[C@@H]3O)[C@@H](O)[C@H]2O)C=CC1
The series is described as follows: HPLC product assay, Michaelis-Menten. It is filed as biochemical, Camellia sinensis. The settings on record: 3-DHS reduction to SA, co-substrate 3-DHS 1.5 mM, BTP-HCl pH 8.5, 30°C, 3 min.
From the text: as §1

Substrate in series [5]: NC(=O)c1ccc[n+]([C@@H]2O[C@H](COP(=O)(O)OP(=O)(O)OC[C@H]3O[C@@H](n4cnc5c(N)ncnc54)[C@H](OP(=O)(O)O)[C@@H]3O)[C@@H](O)[C@H]2O)c1
The experiment in a line: HPLC product assay, Michaelis-Menten. It is filed as biochemical, Camellia sinensis. Particulars: SA oxidation to 3-DHS, co-substrate SA 1.5 mM, BTP-HCl pH 8.5, 30°C, 3 min.
From the text: as §1

Substrate in series [6]: O=C(O)C1=CC(=O)[C@@H](O)[C@H](O)C1
The series is described as follows: HPLC product assay, Michaelis-Menten. It is filed as biochemical, Camellia sinensis. Particulars: 3-DHS reduction to SA, co-substrate NADPH 1.5 mM, BTP-HCl pH 8.5, 30°C, 3 min.
From the text: as §1

Substrate in series [7]: O=C(O)C1=C[C@@H](O)[C@@H](O)[C@H](O)C1
The series is described as follows: HPLC product assay, Michaelis-Menten. It is filed as biochemical, Camellia sinensis. Particulars: SA oxidation to 3-DHS, co-substrate NADP+ 1.5 mM, BTP-HCl pH 8.5, 30°C, 3 min. An excerpt: (§2) HPLC product assay, Michaelis-Menten on CsDQD/SDHd
This is another data set of the same source.

Substrate in series [8]: NC(=O)C1=CN([C@@H]2O[C@H](COP(=O)(O)OP(=O)(O)OC[C@H]3O[C@@H](n4cnc5c(N)ncnc54)[C@H](OP(=O)(O)O)[C@@H]3O)[C@@H](O)[C@H]2O)C=CC1
The series is described as follows: HPLC product assay, Michaelis-Menten. It is filed as biochemical, Camellia sinensis. The settings on record: 3-DHS reduction to SA, co-substrate 3-DHS 1.5 mM, BTP-HCl pH 8.5, 30°C, 3 min.
From the text: as §2
The source holds these as a separate data set.

Substrate in series [9]: NC(=O)c1ccc[n+]([C@@H]2O[C@H](COP(=O)(O)OP(=O)(O)OC[C@H]3O[C@@H](n4cnc5c(N)ncnc54)[C@H](OP(=O)(O)O)[C@@H]3O)[C@@H](O)[C@H]2O)c1
The experiment in a line: HPLC product assay, Michaelis-Menten. It is filed as biochemical, Camellia sinensis. The settings on record: SA oxidation to 3-DHS, co-substrate SA 1.5 mM, BTP-HCl pH 8.5, 30°C, 3 min.
From the text: as §2
This is another data set of the same source.

Substrate in series [10]: O=C(O)C1=CC(=O)[C@@H](O)[C@H](O)C1
The experiment in a line: HPLC product assay, Michaelis-Menten. It is filed as biochemical, Camellia sinensis. The settings on record: 3-DHS reduction to SA, co-substrate NADPH 1.5 mM, BTP-HCl pH 8.5, 30°C, 3 min.
From the text: as §2
This is another data set of the same source.

Substrate in series [11]: O=C(O)C1=C[C@@H](O)[C@@H](O)[C@H](O)C1
The experiment in a line: HPLC product assay, Michaelis-Menten. It is filed as biochemical, Camellia sinensis. Particulars: SA oxidation to 3-DHS, co-substrate NADP+ (per table; b27 pairs the cofactors the other way round), 1.5 mM, BTP-HCl pH 8.5, 30°C, 3 min. An excerpt: (§3) HPLC product assay, Michaelis-Menten on CsDQD/SDHa

Substrate in series [12]: NC(=O)C1=CN([C@@H]2O[C@H](COP(=O)(O)OP(=O)(O)OC[C@H]3O[C@@H](n4cnc5c(N)ncnc54)[C@H](OP(=O)(O)O)[C@@H]3O)[C@@H](O)[C@H]2O)C=CC1
The series is described as follows: HPLC product assay, Michaelis-Menten. It is filed as biochemical, Camellia sinensis. Particulars: 3-DHS reduction to SA, co-substrate 3-DHS 1.5 mM, BTP-HCl pH 8.5, 30°C, 3 min.
From the text: as §3
This is another data set of the same source.

Substrate in series [13]: NC(=O)c1ccc[n+]([C@@H]2O[C@H](COP(=O)(O)OP(=O)(O)OC[C@H]3O[C@@H](n4cnc5c(N)ncnc54)[C@H](OP(=O)(O)O)[C@@H]3O)[C@@H](O)[C@H]2O)c1
The experiment in a line: HPLC product assay, Michaelis-Menten. The settings on record: SA oxidation to 3-DHS, co-substrate SA 1.5 mM, BTP-HCl pH 8.5, 30°C, 3 min. It is filed as biochemical, Camellia sinensis.
From the text: as §3
This is another data set of the same source.

Substrate in series [14]: O=C(O)C1=CC(=O)[C@@H](O)[C@H](O)C1
The experiment in a line: HPLC product assay, Michaelis-Menten. It is filed as biochemical, Camellia sinensis. Particulars: 3-DHS reduction to SA, co-substrate NADPH (per table; b27 pairs the cofactors the other way round), 1.5 mM, BTP-HCl pH 8.5, 30°C, 3 min.
From the text: as §3

As usually defined, the Km is the substrate concentration at which the rate is half of its maximum. As a reminder, the kcat/Km is the turnover number divided by the Michaelis constant.

Sequence of CsDQD/SDHb (Camellia sinensis, UniProt A0A3G3BK08) (A0A3G3BK08 entry or part of it): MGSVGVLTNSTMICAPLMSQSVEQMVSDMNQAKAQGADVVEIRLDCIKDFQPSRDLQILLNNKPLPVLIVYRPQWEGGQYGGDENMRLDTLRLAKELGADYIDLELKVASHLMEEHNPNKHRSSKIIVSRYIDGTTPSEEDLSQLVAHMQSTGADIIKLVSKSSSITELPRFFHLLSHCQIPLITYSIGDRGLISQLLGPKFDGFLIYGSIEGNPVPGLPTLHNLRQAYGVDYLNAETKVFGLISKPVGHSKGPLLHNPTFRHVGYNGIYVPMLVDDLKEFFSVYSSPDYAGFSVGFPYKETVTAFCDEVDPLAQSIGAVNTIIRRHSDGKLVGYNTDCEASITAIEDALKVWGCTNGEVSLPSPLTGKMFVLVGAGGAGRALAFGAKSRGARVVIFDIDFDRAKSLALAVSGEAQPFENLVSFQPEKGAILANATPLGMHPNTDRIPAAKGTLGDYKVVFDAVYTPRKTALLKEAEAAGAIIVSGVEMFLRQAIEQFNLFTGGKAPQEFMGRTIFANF
Sequence of CsDQD/SDHb (Camellia sinensis, UniProt A0A3G3BK08, G296T/D398N/I399R/D400T, form not given) (A0A3G3BK08 entry or part of it G296T/D398N/I399R/D400T, form open): as the sequence (A0A3G3BK08 entry or part of it) above, with G296T, D398N, I399R, D400T counted along it

In the case of `O=C(O)C1=C[C@@H](O)[C@@H](O)[C@H](O)C1` [SA], the values for the HPLC product quantification result on CsDQD/SDHb [1], at CsSDHa (SA oxidation with NADP+) and on CsDQD/SDHb [2] were “CsDQD/SDHb exhibited the lowest SA oxidation activity but had no 3-DHS reduction activity”, “a lower enzymatic activity for NADP^+-dependent oxidation of SA” and “six times higher oxidation activity of SA than CsDQD/SDHb”, respectively.

Consider `O=C(O)C1=CC(=O)[C@@H](O)[C@H](O)C1` [3-DHS], for which, on CsSDHa (3-DHS reduction with NADPH), the HPLC product quantification result is “CsSDHa recombinant protein had an almost identical enzymatic activity for NADPH-dependent reduction of 3-DHS”.

B1: CsDQD/SDHc (Camellia sinensis) (protein)
chain: MASGSFSFATSDVQTSSSGVRSGPTLLCTPLIGTTVDQMLIDMRKAKEIGADMVEIRLDCLREFNPRPDLQILIKQSPLPTLVTYRPIWESGQYEGDENKRQDALRLAMELGADYIDVELQVAQEFNNSISAKKPEKFKVIVSSQNFHSTPSAEAIGNLVARIQATGADIVKIVTTALDITDVARIFQITVHSQIPMIGIAMGERGLISRLLSPKFNGYLTYAALEAGAISAPGQPTVKDLLDLYNFRLIRPDTKVYGIIGKPVGHSKSPLLFNESFKKVGLNSVYVHLLVDDVKKFFSTYSSVDFAGFSCTIPHKEVALECMDEIDQIAKKIGAINNIVRRPDGTLKSYNTDYIGAISAIEDGLRESNGSSPATSSPLAGKLFVVLGAGGAGKSLAYGAQQKGARVVVANRTFERAKELAEKVGGKALTLEEVNDFHPEEGMILANTTSVGMKPNIDLTPISKEALKHYDLVFDAIYTPKDTRLLREARECGKIIVYGTEMLIRQGFEQYKNFTGLQAPEELFRELMSRHA
Regarding B1, the Km in [3] came to 199.653 µM; in [4], 267.244 µM; in series [5], 114.553 µM; in series [6], 330.933 µM. Further, the kcat/Km in [3] was found to be 536 M⁻¹ s⁻¹; in series [4], 193 M⁻¹ s⁻¹; in series [5] it was 372 M⁻¹ s⁻¹; in series [6], 507 M⁻¹ s⁻¹.

B2: CsDQD/SDHd (Camellia sinensis) (protein)
chain: MTLSSIPISEGGRRNPTMICAPVMAENVDQMLLMMRKAKELGADLVEVRIDYLKNFSPHHDLQILIKQCPLPTLITYRPTWEGGQFDGDETRRQAALRQAVELGADYIDIELKVADEFYKLIQGKKPEKVKIIVSSHNYENTPSAEEIGNLAARIQATGADIVKIATTAQDITDSARIFQLLAHSQVPTIGIVMGERGLMSRILCAKFGGFLTFGALESGIVSAPGQPTLKDLLELYNFRQIGPDTKVHGVIGNPIGHSKSPHLYNTAFRSAGFNGIYLPLLVDSVANFFNTYSSPDFVGYSYTIPHKEAGLKCCDEVDPIAEAIGAISCMVRKPSDGKLIGYNVDYLGAIGAIEEALGGSNGSSNGAVSPLASKLFVVIGAGGAGKALAYGGKEKGARVVVANRTYEKAKELASKVDGEAITLAELDDFHPEDGMILANTTSVGMKPKTDATPISKKALNRYSLVFGAIYTPKWTRLLQEAQDSGAKVVFGTEMFINQAFVQFERFTGMPAPKELIRETLAKNT
B2: the Km came out at 610.643 µM in series [7], 248.798 µM in series [8], 46.342 µM in series [9] and 465.971 µM in [10]. Also, the kcat/Km was determined as 138 M⁻¹ s⁻¹ in series [7], 197 M⁻¹ s⁻¹ in series [8], 128 M⁻¹ s⁻¹ in series [9] and 99.5 M⁻¹ s⁻¹ in series [10].

B3: CsDQD/SDHa (Camellia sinensis) (protein)
chain: MELVAPVVAGCGVKMESEGMRKNSTLICVPLMADSVDQMLIYMNKAKLNGADLVEVRLDSLKSFNPPLDIETLIKRCPLPTLFTYRPKWEGGMYDGDESSRLEALQLAMELGADYIDVELQVIHEFNSSMHGKKPAKCKLIVSSHNYENTPSVEDLGNLVVKIQATGADIVKIATTALDITDAARVFQITVHSQVRGVPIIAMVMGERGLMARILCPKFGGYLTFGTLESGIVSAPGQPTMDDLVNLYNIRQIGPDTKVFGIIGKPVGHSKSPILYNEAFKKVGFNGVYLHLLVDDVANFLQTYSSTDFAGFSCTIPHKEAALKCCDEVDPVAKSIGAVNCIVRKSDGKFFGCNTDYVGAITAIEDALGGLQHVNGMVVSPLSGKLFVVIGAGGAGKALAYGAKAKGAKVVIANRTYERAKEIADTIGGDALSLADLSNFHPEDGMILANTTSIGMQPKVDETPVPKQALKSYALVFDAVYTPKITRLLREAEESGAKIVTGVEMFIGQAYEQFERFTGLPAPKELFGKIMAKY
For B3, the Km in series [11] stood at 272.782 µM; in [12], 270.306 µM; in series [13], 138.031 µM; in series [14], 286.576 µM. The kcat/Km is 562 M⁻¹ s⁻¹ in series [11], 746 M⁻¹ s⁻¹ in series [12], 845 M⁻¹ s⁻¹ in series [13] and 1410 M⁻¹ s⁻¹ in [14].
